Measured values reported in publication PMC12237034.

What was measured:
Coagulation factor XIa [1] = target: Coagulation factor XIa
Coagulation factor XIa [2] = assay: enzyme inhibition kinetics; XIa (0.5 nM) preincubated with peptide 30 min at 37 °C, chromogenic substrate S2366; 50 mM Tris pH 7.4, 140 mM NaCl, 5 mM CaCl2, 0.1% BSA; double reciprocal plots, mixed inhibition

Which inhibition of XIa activity on a chromogenic substrate, concentration dependent (Coagulation factor XIa [1]) does the source give for “Schistosoma Kunitz peptide Shp4 (Schistosoma haematobium peptide-repeat 4) (domain or fragment)” here?
The inhibition of XIa activity on a chromogenic substrate, concentration dependent was 7.1 nM.

What about the Ki (Coagulation factor XIa [2]) of the same substance?
Its Ki is 3.35 nM.

What about the Ki' (towards the enzyme-substrate complex) (Coagulation factor XIa [2]) of the same substance?
The Ki' (towards the enzyme-substrate complex) was 1.64 nM.
